Experimental findings from publication PMC5003437, “Development and Optimization of a Thrombin Sandwich Aptamer Microarray” are described below.

Data set [1] deals with T1, human alpha-thrombin (Homo sapiens, UniProt P00734;P00734 328-363;364-622). Kind of data set: sandwich aptamer microarray (fluorescence); thrombin captured on immobilized TBA1, Cy3-streptavidin detection; LOD 0.17 nM (not Kd); 20 mM Tris, 140 mM NaCl, 5 mM KCl, 1 mM MgCl2, pH 7.5, 25 C; 30 min pre-incubation with TBA2, then 2 h on array; PBS wash.
For data set [2], the target named is T1, human alpha-thrombin. In words: sandwich aptamer microarray (fluorescence); thrombin captured on immobilized TBA1; LOD 0.75 nM (not Kd); 20 mM Tris, 140 mM NaCl, 5 mM KCl, 1 mM MgCl2, pH 7.5, 25 C; 30 min pre-incubation with TBA2, then 2 h on array; PBS wash.

As to AGTCCGTGGTAGGGCAGGTTGGGGTGACT (structured_DNA) [TBA2-biotin], the binding result with human alpha-thrombin [1] was “binds”.

AGTCCGTGGTAGGGCAGGTTGGGGTGACT (structured_DNA) [TBA2-Cy5]: the binding result in the data set with human alpha-thrombin [2] is listed as “binds”.
